Experimental findings from patent US20080112961A1 (MacroGenics, published 2008) are described below.

Assay [1] deals with T1, FcγRIIB (form not stated) (UniProt P31994 43-217, limits assumed).
T1 construct: also called FcγRIIB (ELISA)
T1 sequence (looked up): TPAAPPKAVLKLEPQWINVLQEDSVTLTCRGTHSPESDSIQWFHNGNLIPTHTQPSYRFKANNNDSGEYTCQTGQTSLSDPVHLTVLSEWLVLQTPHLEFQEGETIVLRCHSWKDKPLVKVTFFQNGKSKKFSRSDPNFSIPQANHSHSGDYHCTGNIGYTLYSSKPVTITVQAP
Description: ELISA. (In general: In an ELISA, binding on a coated surface is turned into a signal by an enzyme label.)

Assay [2] has as its target T2, FcγRIIIA (form not stated) (UniProt P08637 17-208, limits assumed).
T2 construct: also called FcγRIIIA (ELISA)
Description: ELISA.

T2 sequence (P08637 17-208 F176V limits assumed, form in doubt): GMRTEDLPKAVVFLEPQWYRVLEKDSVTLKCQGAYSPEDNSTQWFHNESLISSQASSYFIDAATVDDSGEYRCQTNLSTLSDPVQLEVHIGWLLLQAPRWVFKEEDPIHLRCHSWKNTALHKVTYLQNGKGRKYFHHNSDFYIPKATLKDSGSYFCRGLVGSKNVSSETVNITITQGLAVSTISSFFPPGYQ

B1: ch4-4-20 T215P, K274N, A287G, K334N, L365V, P396L (antibody)
chain: PEPKSCDKTHTCPPCPAPELLGGPSVFLFPPKPKDTLMISRTPEVTCVVVDVSHEDPEVNFNWYVDGVEVHNGKTKPREEQYNSTYRVVSVLTVLHQDWLNGKEYKCKVSNKALPAPIENTISKAKGQPREPQVYTLPPSRDELTKNQVSVTCLVKGFYPSDIAVEWESNGQPENNYKTTPLVLDSDGSFFLYSKLTVDKSRWQQGNVFSCSVMHEALHNHYTQKSLSLSPGK
As to B1, the “fold increase vs WT” value in assay [1] stood at 4 x.

B2: ch4-4-20 A231V, Q386H, V412M (antibody)
heavy: ASTKGPSVFPLAPSSKSTSGGTAALGCLVKDYFPEPVTVSWNSGALTSGVHTFPAVLQSSGLYSLSSVVTVPSSSLGTQTYICNVNHKPSNTKVDKKVEPKSCDKTHTCPPCPVPELLGGPSVFLFPPKPKDTLMISRTPEVTCVVVDVSHEDPEVKFNWYVDGVEVHNAKTKPREEQYNSTYRVVSVLTVLHQDWLNGKEYKCKVSNKALPAPIEKTISKAKGQPREPQVYTLPPSRDELTKNQVSLTCLVKGFYPSDIAVEWESNGHPENNYKTTPPVLDSDGSFFLYSKLTMDKSRWQQGNVFSCSVMHEALHNHYTQKSLSLSPGK
Regarding B2, the “fold increase vs WT” value in assay [2] came to 1.5 x; in assay [1], 6 x.

B3: ch4-4-20 K246I, Q362H, K370E (antibody)
heavy: ASTKGPSVFPLAPSSKSTSGGTAALGCLVKDYFPEPVTVSWNSGALTSGVHTFPAVLQSSGLYSLSSVVTVPSSSLGTQTYICNVNHKPSNTKVDKKVEPKSCDKTHTCPPCPAPELLGGPSVFLFPPIPKDTLMISRTPEVTCVVVDVSHEDPEVKFNWYVDGVEVHNAKTKPREEQYNSTYRVVSVLTVLHQDWLNGKEYKCKVSNKALPAPIEKTISKAKGQPREPQVYTLPPSRDELTKNHVSLTCLVEGFYPSDIAVEWESNGQPENNYKTTPPVLDSDGSFFLYSKLTVDKSRWQQGNVFSCSVMHEALHNHYTQKSLSLSPGK
With B3, the “fold decrease vs WT” value in assay [1] came out at 0.5 x.

B4: ch4-4-20 K334E, E380D, G446V (antibody)
heavy: ASTKGPSVFPLAPSSKSTSGGTAALGCLVKDYFPEPVTVSWNSGALTSGVHTFPAVLQSSGLYSLSSVVTVPSSSLGTQTYICNVNHKPSNTKVDKKVEPKSCDKTHTCPPCPAPELLGGPSVFLFPPKPKDTLMISRTPEVTCVVVDVSHEDPEVKFNWYVDGVEVHNAKTKPREEQYNSTYRVVSVLTVLHQDWLNGKEYKCKVSNKALPAPIEETISKAKGQPREPQVYTLPPSRDELTKNQVSLTCLVKGFYPSDIAVDWESNGQPENNYKTTPPVLDSDGSFFLYSKLTVDKSRWQQGNVFSCSVMHEALHNHYTQKSLSLSPVK
For the molecule B4, the binding result in assay [1] is recorded as “no binding”.

B5: ch4-4-20 F243L, R255L, E318K (antibody)
heavy: ASTKGPSVFPLAPSSKSTSGGTAALGCLVKDYFPEPVTVSWNSGALTSGVHTFPAVLQSSGLYSLSSVVTVPSSSLGTQTYICNVNHKPSNTKVDKKVEPKSCDKTHTCPPCPAPELLGGPSVFLLPPKPKDTLMISLTPEVTCVVVDVSHEDPEVKFNWYVDGVEVHNAKTKPREEQYNSTYRVVSVLTVLHQDWLNGKKYKCKVSNKALPAPIEKTISKAKGQPREPQVYTLPPSRDELTKNQVSLTCLVKGFYPSDIAVEWESNGQPENNYKTTPPVLDSDGSFFLYSKLTVDKSRWQQGNVFSCSVMHEALHNHYTQKSLSLSPGK
As for B5, the “fold increase vs WT” value in assay [2] is 1 x.

B6: ch4-4-20 E269K, K290N, Q311R, H433Y (antibody)
heavy: ASTKGPSVFPLAPSSKSTSGGTAALGCLVKDYFPEPVTVSWNSGALTSGVHTFPAVLQSSGLYSLSSVVTVPSSSLGTQTYICNVNHKPSNTKVDKKVEPKSCDKTHTCPPCPAPELLGGPSVFLFPPKPKDTLMISRTPEVTCVVVDVSHKDPEVKFNWYVDGVEVHNAKTNPREEQYNSTYRVVSVLTVLHRDWLNGKEYKCKVSNKALPAPIEKTISKAKGQPREPQVYTLPPSRDELTKNQVSLTCLVKGFYPSDIAVEWESNGQPENNYKTTPPVLDSDGSFFLYSKLTVDKSRWQQGNVFSCSVMHEALYNHYTQKSLSLSPGK
B6: the binding result in assay [1] is “no binding”.

B7: ch4-4-20 P244A, K326I, C367R, S375I, K447T (antibody)
heavy: ASTKGPSVFPLAPSSKSTSGGTAALGCLVKDYFPEPVTVSWNSGALTSGVHTFPAVLQSSGLYSLSSVVTVPSSSLGTQTYICNVNHKPSNTKVDKKVEPKSCDKTHTCPPCPAPELLGGPSVFLFAPKPKDTLMISRTPEVTCVVVDVSHEDPEVKFNWYVDGVEVHNAKTKPREEQYNSTYRVVSVLTVLHQDWLNGKEYKCKVSNIALPAPIEKTISKAKGQPREPQVYTLPPSRDELTKNQVSLTRLVKGFYPIDIAVEWESNGQPENNYKTTPPVLDSDGSFFLYSKLTVDKSRWQQGNVFSCSVMHEALHNHYTQKSLSLSPGT
As to B7, in assay [1], the “fold increase vs WT” value worked out at 3 x.

B8: ch4-4-20 P291S, K288E, H268L, A141V (antibody)
heavy: ASTKGPSVFPLAPSSKSTSGGTAVLGCLVKDYFPEPVTVSWNSGALTSGVHTFPAVLQSSGLYSLSSVVTVPSSSLGTQTYICNVNHKPSNTKVDKKVEPKSCDKTHTCPPCPAPELLGGPSVFLFPPKPKDTLMISRTPEVTCVVVDVSLEDPEVKFNWYVDGVEVHNAETKSREEQYNSTYRVVSVLTVLHQDWLNGKEYKCKVSNKALPAPIEKTISKAKGQPREPQVYTLPPSRDELTKNQVSLTCLVKGFYPSDIAVEWESNGQPENNYKTTPPVLDSDGSFFLYSKLTVDKSRWQQGNVFSCSVMHEALHNHYTQKSLSLSPGK
For the molecule B8, the “fold decrease vs WT” value in assay [2] came to 0.5 x.

B9: ch4-4-20 K246E, V284M, V308A (antibody)
heavy: ASTKGPSVFPLAPSSKSTSGGTAALGCLVKDYFPEPVTVSWNSGALTSGVHTFPAVLQSSGLYSLSSVVTVPSSSLGTQTYICNVNHKPSNTKVDKKVEPKSCDKTHTCPPCPAPELLGGPSVFLFPPEPKDTLMISRTPEVTCVVVDVSHEDPEVKFNWYVDGVEMHNAKTKPREEQYNSTYRVVSVLTALHQDWLNGKEYKCKVSNKALPAPIEKTISKAKGQPREPQVYTLPPSRDELTKNQVSLTCLVKGFYPSDIAVEWESNGQPENNYKTTPPVLDSDGSFFLYSKLTVDKSRWQQGNVFSCSVMHEALHNHYTQKSLSLSPGK
Turning to B9, in assay [1], the binding result was “no binding”.

B10: ch4-4-20 C229Y, A287T, V379M, P396L, L443V (antibody)
heavy: ASTKGPSVFPLAPSSKSTSGGTAALGCLVKDYFPEPVTVSWNSGALTSGVHTFPAVLQSSGLYSLSSVVTVPSSSLGTQTYICNVNHKPSNTKVDKKVEPKSCDKTHTCPPYPAPELLGGPSVFLFPPKPKDTLMISRTPEVTCVVVDVSHEDPEVKFNWYVDGVEVHNTKTKPREEQYNSTYRVVSVLTVLHQDWLNGKEYKCKVSNKALPAPIEKTISKAKGQPREPQVYTLPPSRDELTKNQVSLTCLVKGFYPSDIAMEWESNGQPENNYKTTPLVLDSDGSFFLYSKLTVDKSRWQQGNVFSCSVMHEALHNHYTQKSLSVSPGK
Consider B10, for which the “fold increase vs WT” value in assay [1] was determined as 10 x.

B11: ch4-4-20 V303I, V369F, M428L (antibody)
heavy: ASTKGPSVFPLAPSSKSTSGGTAALGCLVKDYFPEPVTVSWNSGALTSGVHTFPAVLQSSGLYSLSSVVTVPSSSLGTQTYICNVNHKPSNTKVDKKVEPKSCDKTHTCPPCPAPELLGGPSVFLFPPKPKDTLMISRTPEVTCVVVDVSHEDPEVKFNWYVDGVEVHNAKTKPREEQYNSTYRVISVLTVLHQDWLNGKEYKCKVSNKALPAPIEKTISKAKGQPREPQVYTLPPSRDELTKNQVSLTCLFKGFYPSDIAVEWESNGQPENNYKTTPPVLDSDGSFFLYSKLTVDKSRWQQGNVFSCSVLHEALHNHYTQKSLSLSPGK
Turning to B11, the binding result in assay [1] was “no binding”.

B12: ch4-4-20 K317N, F423-deleted (antibody)
chain: EPKSCDKTHTCPPCPAPELLGGPSVFLFPPKPKDTLMISRTPEVTCVVVDVSHEDPEVKFNWYVDGVEVHNAKTKPREEQYNSTYRVVSVLTVLHQDWLNGNEYKCKVSNKALPAPIEKTISKAKGQPREPQVYTLPPSREEMTKNQVSLTCLVKGFYPSDIAVEWESNGQPENNYKTTPPVLDSDGSFFLYSKLTVDKSRWQQGNVSCSVMHEALHNHYTQKSLSLSPGK
Consider B12, for which the “fold increase vs WT” value in assay [1] worked out at 7 x.
